Measured values from patent publication US20240043820.

How the values were obtained:
[1] = target: SpCas9 Mut 2.2 (TurboCas9) V842L,Q844R,F846Y,L847M,I852F (Streptococcus pyogenes) (UniProt Q99ZW2); experiment: cell_activity; settings: HEK293T; 5% alleles unedited vs 36% for WT; PAM not stated
[2] = target: SpCas9 Mut 4110 N767E,Q771R,K772Q,K775D,R780K,Q844R,L847M,K848T,D850N,I852F,K913E,G915R,F916W,I917V,V922M (Streptococcus pyogenes) (UniProt Q99ZW2); experiment: cell_activity; settings: yeast survival assay; PAM not stated

Row | Substance | activity (fold vs WT SpCas9) [1] | activity (fold vs WT SpCas9) [2]
1 | VEGFA gRNA ; VEGFA target site | 1.5 | –
2 | HIS3 gRNA ; HIS3 target site | – | 3.9
3 | ADE2 gRNA ; ADE2 target site | – | 2
